In patent US20200299408A1 (Genentech, published 2020):
Values joined by “and” are separate entries in the source; they are usually repeats but may differ in a detail not shown here. Equal values may be shown once. Read-outs that look alike come from different tables or passages of the source.

How the values were obtained:
[1] = biological target: T1, single chain human CD3ε-26mer-CD3γ (CD3εγ) (human); assay: Biacore full (multi-) cycle kinetics; KD relative to hu38E4.v1
T1 construct: also called human CD3εγ
T1 chain: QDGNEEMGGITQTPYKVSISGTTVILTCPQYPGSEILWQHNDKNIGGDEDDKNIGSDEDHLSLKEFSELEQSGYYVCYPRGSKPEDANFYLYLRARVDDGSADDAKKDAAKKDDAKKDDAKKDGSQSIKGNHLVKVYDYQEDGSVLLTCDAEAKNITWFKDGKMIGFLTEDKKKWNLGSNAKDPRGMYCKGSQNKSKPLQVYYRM
Text: (§1) In addition, position 95 in HVR-H3 was also mutated to serine, threonine, or glutamate. Variants with these single point mutations were expressed as Fabs in HEK293 cells and initially screened with a single cycle kinetics method on a Biacore T100. Selected variants were also scaled up and purified for a conventional multi-cycle kinetics method. For single cycle kinetics, Biacore Series S CM5 sensor chips were immobilized with anti-human Fab antibodies (Human Fab capture kit, GE Healthcare). […] For conventional multi-cycle kinetics, human CD3εγ, cyno CD3εγ, or a 27-mer peptide were immobilized on Biacore Series S CM5 sensor chip using the amine coupling kit from Biacore. Serial 3-fold dilutions of each Fab variant were injected at a flow rate of 30 μl/min. Each sample was analyzed with a protocol of 3-minute association and 3-minute dissociation. In both methods, the Biacore chips were regenerated using 10 mM Glycine (pH 1.7). Binding response was corrected by blank subtraction and a 1:1Languir model of simultaneous fitting of kₒₙ and koff was used for kinetics analysis.

[2] = biological target: T1, single chain human CD3ε-26mer-CD3γ …; assay: Biacore full (multi-) cycle kinetics: antigen on chip, Fab injected; antigen not named on the sheet, taken as human CD3εγ
Text: as §1

human CD3 on T cells = biological target: T2, human CD3 on T cells (human, UniProt P07766 22-207); assay: FACS on Jurkat cells (CD3); EC50 table for the curves of FIGS. 21A-21B; source CHO (N297G)
T2 construct: whole, on cells; On cells CD3ε stands in the CD3/TCR complex; also called CD3 antigen; CD3ε
Protocol: (§2) Binding affinities for the each of the CD3/CD20 TDBs were tested by Biacore or FACS analysis, as described above for the anti-CD3 antibodies. Briefly, for Biacore binding assays, human CD3εγ was immobilized on Biacore Series S CM5 sensor chip using the amine coupling kit from Biacore and CD3/CD20 TDBs or Fab variants thereof were in the flow through. For FACS binding assays, either Bjab cells (for B cell antigens) or Jurkat cells (for CD3 antigen) were incubated with various concentrations of TDB antibodies at 4° C. for 30 minutes, then cells were washed and incubated with 2nd antibody (anti-huIgG-PE; BD Bioscience) for another 15 minutes, before cells were washed again and ready for FACS analysis.

[3] = biological target: T1, single chain human CD3ε-26mer-CD3γ …; assay: Biacore, human CD3εγ on chip, TDB in flow through
Protocol: as §2

[4] = biological target: CD3 antigen of Figures 3B and 3C (not named); assay: kinetic table of IgGs; method and antigen not stated
[5] = biological target: CD3 antigen of Figures 3B and 3C (not named); assay: as above; remark: listed apart in the source

Row | ratio (fold) [1] | Kd [2] | koff [2] | kon [2] | Binder | also measured
1 | 5.1 fold | 4 nM | 0.0124 s⁻¹ | 3.08e+06 M⁻¹ s⁻¹ | hu38E4.v1 L3 mutant I93A (Fab, V domains shown, copies: 1 + 1) VH: EVQLVQSGAEVKKPGASVKVSCKASGFTFTSYYIHWVRQAPGQGLEWIGWIYPENDNTKYNEKFKDRVTITADTSTSTAYLELSSLRSEDTAVYYCARDGYSRYYFDYWGQGTLVTVSS VL: DIVMTQSPDSLAVSLGERATINCKSSQSLLNSRTRKNYLAWYQQKPGQSPKLLIYWTSTRKSGVPDRFSGSGSGTDFTLTISSLQAEDVAVYYCKQSFALRTFGQGTKVEIK | –
2 | 2.4 fold | 1.9 nM | 0.00357 s⁻¹ | 1.86e+06 M⁻¹ s⁻¹ | hu38E4.v1 H3 mutant G96A (Fab, V domains shown, copies: 1 + 1) VH: EVQLVQSGAEVKKPGASVKVSCKASGFTFTSYYIHWVRQAPGQGLEWIGWIYPENDNTKYNEKFKDRVTITADTSTSTAYLELSSLRSEDTAVYYCARDAYSRYYFDYWGQGTLVTVSS VL: DIVMTQSPDSLAVSLGERATINCKSSQSLLNSRTRKNYLAWYQQKPGQSPKLLIYWTSTRKSGVPDRFSGSGSGTDFTLTISSLQAEDVAVYYCKQSFILRTFGQGTKVEIK | –
3 | 110 fold | 87 nM | 0.0246 s⁻¹ | 283000 M⁻¹ s⁻¹ | hu38E4.v1 H3 mutant Y100aA (Fab, V domains shown, copies: 1 + 1) VH: EVQLVQSGAEVKKPGASVKVSCKASGFTFTSYYIHWVRQAPGQGLEWIGWIYPENDNTKYNEKFKDRVTITADTSTSTAYLELSSLRSEDTAVYYCARDGYSRYAFDYWGQGTLVTVSS VL: DIVMTQSPDSLAVSLGERATINCKSSQSLLNSRTRKNYLAWYQQKPGQSPKLLIYWTSTRKSGVPDRFSGSGSGTDFTLTISSLQAEDVAVYYCKQSFILRTFGQGTKVEIK | –
4 | 20 fold | 15.9 nM | 0.0232 s⁻¹ | 1.46e+06 M⁻¹ s⁻¹ | hu38E4.v1 L3 mutant F92A (Fab, V domains shown, copies: 1 + 1) VH: EVQLVQSGAEVKKPGASVKVSCKASGFTFTSYYIHWVRQAPGQGLEWIGWIYPENDNTKYNEKFKDRVTITADTSTSTAYLELSSLRSEDTAVYYCARDGYSRYYFDYWGQGTLVTVSS VL: DIVMTQSPDSLAVSLGERATINCKSSQSLLNSRTRKNYLAWYQQKPGQSPKLLIYWTSTRKSGVPDRFSGSGSGTDFTLTISSLQAEDVAVYYCKQSAILRTFGQGTKVEIK | –
5 | 521 fold | 414 nM | 0.0191 s⁻¹ | 46000 M⁻¹ s⁻¹ | hu38E4.v1 H3 mutant Y100A (Fab, V domains shown, copies: 1 + 1) VH: EVQLVQSGAEVKKPGASVKVSCKASGFTFTSYYIHWVRQAPGQGLEWIGWIYPENDNTKYNEKFKDRVTITADTSTSTAYLELSSLRSEDTAVYYCARDGYSRAYFDYWGQGTLVTVSS VL: DIVMTQSPDSLAVSLGERATINCKSSQSLLNSRTRKNYLAWYQQKPGQSPKLLIYWTSTRKSGVPDRFSGSGSGTDFTLTISSLQAEDVAVYYCKQSFILRTFGQGTKVEIK | –

The remaining lines, values behind:

Row | Binder | ratio (fold) [1] | Kd [2] | koff [2] | kon [2] | also measured
6 | hu38E4.v1 H3 mutant D95S (Fab, V domains shown, copies: 1 + 1) VH: EVQLVQSGAEVKKPGASVKVSCKASGFTFTSYYIHWVRQAPGQGLEWIGWIYPENDNTKYNEKFKDRVTITADTSTSTAYLELSSLRSEDTAVYYCARSGYSRYYFDYWGQGTLVTVSS VL: DIVMTQSPDSLAVSLGERATINCKSSQSLLNSRTRKNYLAWYQQKPGQSPKLLIYWTSTRKSGVPDRFSGSGSGTDFTLTISSLQAEDVAVYYCKQSFILRTFGQGTKVEIK | 226 fold | 180 nM | 0.202 s⁻¹ | 1.12e+06 M⁻¹ s⁻¹ | –
7 | 40G5c CHO (bispecific antibody, V domains shown, CHO-produced full-length knob-into-hole IgG with N297G in the Fc; constant regions are not in the letters., CHO material; also called CD3/CD20 TDB 2H7v16/40G5c produced in CHO, N297G) VH 1: EVQLVESGGGLVQPGGSLRLSCAASGYTFTSYNMHWVRQAPGKGLEWVGAIYPGNGDTSYNQKFKGRFTISVDKSKNTLYLQMNSLRAEDTAVYYCARVVYYSNSYWYFDVWGQGTLVTVSS VL 1: DIQMTQSPSSLSASVGDRVTITCRASSSVSYMHWYQQKPGKAPKPLIYAPSNLASGVPSRFSGSGSGTDFTLTISSLQPEDFATYYCQQWSFNPPTFGQGTKVEIK VH 2: EVQLVQSGAEVKKPGASVKVSCKASGYTFTNYYIHWVRQAPGQGLEWIGWIYPGDGNTKYNEKFKGRATLTADTSTSTAYLELSSLRSEDTAVYYCARDSYSNYYFDYWGQGTLVTVSS VL 2: DIVMTQSPDSLAVSLGERATINCKSSQSLLNSRTRKNYLAWYQQKPGQPPKLLIYWASTRESGVPDRFSGSGSGTDFTLTISSLQAEDVAVYYCTQSFILRTFGQGTKVEIK | – | – | – | – | EC50 (human CD3 on T cells): 2.01 µg/mL and ~13 nM; Kd [3]: 51.5 nM; koff [3]: 0.0307 s⁻¹; kon [3]: 597000 M⁻¹ s⁻¹
8 | 38E4v9 CHO (bispecific antibody, also called CD3/CD20 TDB 2H7v16/38E4v9) anti-CD20 arm heavy chain: EVQLVESGGGLVQPGGSLRLSCAASGYTFTSYNMHWVRQAPGKGLEWVGAIYPGNGDTSYNQKFKGRFTISVDKSKNTLYLQMNSLRAEDTAVYYCARVVYYSNSYWYFDVWGQGTLVTVSS anti-CD20 arm light chain: DIQMTQSPSSLSASVGDRVTITCRASSSVSYMHWYQQKPGKAPKPLIYAPSNLASGVPSRFSGSGSGTDFTLTISSLQPEDFATYYCQQWSFNPPTFGQGTKVEIK anti-CD3 arm heavy chain: EVQLVQSGAEVKKPGASVKVSCKASGFTFTSYYIHWVRQAPGQGLEWIGWIYPENDNTKYNEKFKDRVTITADTSTSTAYLELSSLRSEDTAVYYCARDGYSRAYFDYWGQGTLVTVSS anti-CD3 arm light chain: DIVMTQSPDSLAVSLGERATINCKSSQSLLNSRTRKNYLAWYQQKPGQSPKLLIYWTSTRKSGVPDRFSGSGSGTDFTLTISSLQAEDVAVYYCKQSFILRTFGQGTKVEIK | – | – | – | – | EC50 (human CD3 on T cells): 15 µg/mL and ~97 nM; Kd [3]: 64200 nM; koff [3]: 1.02 s⁻¹; kon [3]: 15900 M⁻¹ s⁻¹
9 | hu38E4.v1 H3 mutant D95T (Fab, V domains shown, copies: 1 + 1) VH: EVQLVQSGAEVKKPGASVKVSCKASGFTFTSYYIHWVRQAPGQGLEWIGWIYPENDNTKYNEKFKDRVTITADTSTSTAYLELSSLRSEDTAVYYCARTGYSRYYFDYWGQGTLVTVSS VL: DIVMTQSPDSLAVSLGERATINCKSSQSLLNSRTRKNYLAWYQQKPGQSPKLLIYWTSTRKSGVPDRFSGSGSGTDFTLTISSLQAEDVAVYYCKQSFILRTFGQGTKVEIK | 43 fold | 34.2 nM | 0.00175 s⁻¹ | 51100 M⁻¹ s⁻¹ | –
10 | 38E4 (antibody, IgG3, V domains shown, mouse hybridoma clone; also called mu38E4) VH: QVQLQQSGPELVKPGASVTISCTASGFTFTSYYIHWVRQRPGQGLEWIGWIYPENDNTKYNEKFKDKATLTADTSSSTAYMQLSSLTSEDSAVYYCARDGYSRYYFDYWGQGTTLTVSS VL: DIVMTQSPSFLAVSAGEKVTMSCKSSQSLLNSRTRKNYLAWYQQRPGQSPKLLIYWTSTRKSGVPDRFTGSGSGTDFTLTISSVQAEDLAIYYCKQSFILRTFGGGTKLEIK | – | – | – | – | Kd [4]: 0.0783 nM; koff [4]: 3.45e-05 s⁻¹; kon [4]: 441000 M⁻¹ s⁻¹; Kd [5]: 0.95 nM; koff [5]: 5.32e-05 s⁻¹; kon [5]: 56000 M⁻¹ s⁻¹
11 | Rab17 (antibody, rabbit IgG1, V domains shown, clone from the rabbit immunization) VH: QSVKESEGGLFKPTDTLTLTCTVSGCSLSSCAISWVRQAPGKGLEWIGFMSVTGSAYYANWAKSRSTITRNTNENTVTLKMTRLTAADTAIYFCARVGIGSGLNIWG VL: DMTQTPSSKSVPVGDTVTINCQASETVYSNNYLAWFQQKPGQPPKRLIYGVSTLDSGVPPRFSGSGSGTQFTLTISDVVCDDAATYYCAGYKTSSSYAIAFGGGTELEIL | – | – | – | – | Kd [5]: 8.46 nM; koff [5]: 0.000242 s⁻¹; kon [5]: 28600 M⁻¹ s⁻¹
12 | 40G5 (antibody, V domains shown, mouse hybridoma clone; not the consensus 40G5c; also called mu40G5) VH: QVQLQQSGPELVKPGTSVKMSCKASGYTFTNYYIHWVRQRPGQGLEWIGWIYPGDVSTKYNEKFKGKTTLTADKSSSTAYMLLSGLTSEDSAIYFCARDGYSFYYFDYWGQGTTLTVSS VL: DIVLTQSPSSLAVSAGEKVTMSCKSSQSLLNSRTRKNYLTWYQQKPGQSPKLLIYWASTRDSGVPDRFSGSGSGTDFTLTISSVQAEDLAVYYCTQSYTLRTFGGGTKLEIK | – | – | – | – | Kd [4]: 0.159 nM; koff [4]: 2.48e-05 s⁻¹; kon [4]: 156000 M⁻¹ s⁻¹; Kd [5]: 0.86 nM; koff [5]: 2.69e-05 s⁻¹; kon [5]: 31100 M⁻¹ s⁻¹
